How the values were obtained:
[1] = target: His6x-CutF, purified (Klebsiella pneumoniae) (UniProt A6T4Z5); experiment: SEC; purified His6x-tagged core enzymes, alone and together, on the Superose 6 column
[2] = target: cmcD (BMC-P shell protein) (Klebsiella pneumoniae); experiment: cryo-EM structure; small type cmcABC′ + cmcD + CutC_(336–1128) BDPs (gel filtration 90-100 ml), 1 mg/ml in 100 mM NaCl, 20 mM Tris-HCl pH 8.0; pT = 4 icosahedral map at 3.3 Å

Row | Substance | stoichiometry N [1] | stoichiometry N [2]
1 | His6x-CutF, purified (from UniProt A6T4Z5 1-239) (enzyme) | 4 | –
2 | cmcD (BMC-P shell protein) (natural protein) | – | 5

Reference: paper PMC6971018
